Key:
[1] = target: Myeloma human IgA1 (Abcam) (human, UniProt P01876-1 1-353); assay: indirect ELISA, antigen coated 1 µg/mL, antibody 1 µg/mL; no-antigen well 0.048
Procedure: (§1) Myeloma human IgA1 (Abcam), Myeloma human IgA2 (Abcam), Myeloma human IgD (Abcam), Myeloma human IgE (Abcam), Myeloma human IgM (Abcam), Myeloma human IgG1 (EMD Millipore), Myeloma human IgG2 (EMD Millipore), Myeloma human IgG3 (Sigma-Aldrich Co. LLC), and Myeloma human IgG4 (EMD Millipore) were adjusted to 1 μg/mL with PBS(−). The adjusted samples were added to a 96-well plate (Thermo Fisher Scientific) by 100 μL, respectively. The plate was shaken by a shaker under the condition of 700 rpm and 25.0° C. for 1 hour. The solutions were discarded, the plate was cleaned with 300 μL of PBST 3 times, 100 μL of a blocking buffer solution was added to each well, and then the plate was stored at 4° C. one night or more. Similarly, after cleaning with PBST, the MaI4-08 and MaI4-09-produced antibodies were adjusted to 1 μg/mL with an antibody dilute buffer solution and then added to each well by 100 μL, and the plate was shaken under the same condition as mentioned above. Similarly, after cleaning with PBST, a HRP labeled anti-mouse IgG antibody (Abcam) diluted 4000-fold with an antibody dilute buffer solution was added to each well by 100 μL, and the plate was shaken under the same condition as mentioned above. Similarly, after cleaning with PBST, 100 μL of SureBlue (KPL) was added. 5 or 3 minutes later, 100 μL of 0.5 mol/L sulfuric acid (Wako Pure Chemical Corporation) was added to each of MaI4-08 and MaI4-09. Absorbance at a wavelength of 450 nm was measured with a microplate reader (BIO-RAD Laboratories, Inc.). As a result, a strong signal was given to Myeloma human IgG4 as compared to the other samples (Tables 2 and 3, and FIGS. 2 and 3).

[2] = target: Myeloma human IgA2 (Abcam) (human, UniProt P01877-1 1-340); assay: as above
Sequence of Myeloma human IgA2 (Abcam) (P01877 other isoform, or with tags, fused parts or gaps): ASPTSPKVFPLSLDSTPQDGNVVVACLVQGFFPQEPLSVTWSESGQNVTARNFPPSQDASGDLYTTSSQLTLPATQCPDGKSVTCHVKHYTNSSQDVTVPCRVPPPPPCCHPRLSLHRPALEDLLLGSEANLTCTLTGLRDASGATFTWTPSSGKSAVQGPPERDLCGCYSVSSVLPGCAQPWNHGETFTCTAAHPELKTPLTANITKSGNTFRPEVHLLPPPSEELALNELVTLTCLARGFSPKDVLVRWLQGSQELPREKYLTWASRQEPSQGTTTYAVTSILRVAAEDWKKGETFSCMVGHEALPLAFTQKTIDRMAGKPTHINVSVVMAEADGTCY
Procedure: as §1

[3] = target: Myeloma human IgD (Abcam) (human, UniProt P01880-1 1-384); assay: as above
Sequence of Myeloma human IgD (Abcam) (P01880 other isoform, or with tags, fused parts or gaps): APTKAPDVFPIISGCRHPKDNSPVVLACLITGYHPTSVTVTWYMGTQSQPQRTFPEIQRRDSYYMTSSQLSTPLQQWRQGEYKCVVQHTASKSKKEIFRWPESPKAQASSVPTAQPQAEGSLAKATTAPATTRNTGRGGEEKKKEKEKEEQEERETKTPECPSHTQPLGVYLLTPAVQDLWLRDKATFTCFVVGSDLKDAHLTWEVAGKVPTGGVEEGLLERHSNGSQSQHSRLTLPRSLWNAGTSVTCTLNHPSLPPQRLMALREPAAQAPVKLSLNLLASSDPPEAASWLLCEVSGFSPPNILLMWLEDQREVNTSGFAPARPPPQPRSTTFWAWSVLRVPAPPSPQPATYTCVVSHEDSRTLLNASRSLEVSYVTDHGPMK
Procedure: as §1

[4] = target: Myeloma human IgE (Abcam) (human, UniProt P01854-1 1-428); assay: as above
Sequence of Myeloma human IgE (Abcam) (P01854 other isoform, or with tags, fused parts or gaps): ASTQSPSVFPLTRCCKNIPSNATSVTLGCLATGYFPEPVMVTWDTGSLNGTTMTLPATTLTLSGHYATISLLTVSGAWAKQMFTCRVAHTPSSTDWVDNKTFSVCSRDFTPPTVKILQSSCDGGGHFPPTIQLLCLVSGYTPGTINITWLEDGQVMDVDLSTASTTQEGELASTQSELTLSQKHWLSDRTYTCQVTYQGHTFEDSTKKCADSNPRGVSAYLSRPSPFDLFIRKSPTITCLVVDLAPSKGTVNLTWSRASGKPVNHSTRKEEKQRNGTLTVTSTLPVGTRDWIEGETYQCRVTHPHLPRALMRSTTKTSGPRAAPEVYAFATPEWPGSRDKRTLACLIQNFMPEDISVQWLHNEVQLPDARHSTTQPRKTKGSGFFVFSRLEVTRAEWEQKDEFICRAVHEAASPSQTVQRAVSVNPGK
Procedure: as §1

[5] = target: Myeloma human IgM (Abcam) (human, UniProt P01871-1 1-453); assay: as above
Sequence of Myeloma human IgM (Abcam) (P01871 other isoform, or with tags, fused parts or gaps): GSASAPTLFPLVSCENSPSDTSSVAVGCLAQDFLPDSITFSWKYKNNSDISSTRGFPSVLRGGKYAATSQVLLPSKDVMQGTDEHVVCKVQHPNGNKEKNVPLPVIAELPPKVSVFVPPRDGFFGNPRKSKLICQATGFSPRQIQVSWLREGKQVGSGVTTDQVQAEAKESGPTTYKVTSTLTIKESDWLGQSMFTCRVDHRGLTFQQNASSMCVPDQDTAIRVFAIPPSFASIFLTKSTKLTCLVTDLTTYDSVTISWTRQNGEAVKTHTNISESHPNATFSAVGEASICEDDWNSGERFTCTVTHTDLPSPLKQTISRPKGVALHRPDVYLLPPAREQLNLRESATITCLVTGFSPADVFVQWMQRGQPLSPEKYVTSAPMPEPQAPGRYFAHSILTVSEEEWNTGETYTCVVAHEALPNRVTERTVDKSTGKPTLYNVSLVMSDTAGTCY
Procedure: as §1

[6] = target: T1, Myeloma human IgG2 (EMD Millipore) (human); assay: as above
T1 construct: Bought myeloma protein
T1 sequence (constant, as listed by the source limits assumed): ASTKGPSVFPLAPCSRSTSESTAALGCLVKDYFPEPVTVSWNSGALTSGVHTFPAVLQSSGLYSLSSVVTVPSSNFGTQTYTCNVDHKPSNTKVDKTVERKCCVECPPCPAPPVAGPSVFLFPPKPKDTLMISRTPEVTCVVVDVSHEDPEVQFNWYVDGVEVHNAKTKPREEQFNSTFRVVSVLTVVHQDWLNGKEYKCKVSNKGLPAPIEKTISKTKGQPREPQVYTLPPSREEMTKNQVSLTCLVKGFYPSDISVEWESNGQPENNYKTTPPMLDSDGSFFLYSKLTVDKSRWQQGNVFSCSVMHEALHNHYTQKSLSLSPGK
Procedure: as §1

[7] = target: T2, Myeloma human IgG3 (Sigma-Aldrich Co. LLC) (human); assay: as above
T2 construct: Bought myeloma protein
T2 sequence (constant, as listed by the source limits assumed): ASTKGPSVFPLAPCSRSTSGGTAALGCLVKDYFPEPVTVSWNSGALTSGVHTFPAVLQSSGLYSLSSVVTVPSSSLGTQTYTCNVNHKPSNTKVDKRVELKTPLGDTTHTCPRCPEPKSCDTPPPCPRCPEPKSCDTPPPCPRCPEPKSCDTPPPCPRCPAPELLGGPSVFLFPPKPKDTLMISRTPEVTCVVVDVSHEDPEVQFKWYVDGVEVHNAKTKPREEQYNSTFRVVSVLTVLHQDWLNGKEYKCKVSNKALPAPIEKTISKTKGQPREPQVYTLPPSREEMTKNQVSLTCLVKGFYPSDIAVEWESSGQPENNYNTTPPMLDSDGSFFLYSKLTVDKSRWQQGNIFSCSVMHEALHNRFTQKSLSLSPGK
Procedure: as §1

[8] = target: T3, GST-tagged peptide H2 (positions 1 to 274 of the human IgG4 heavy chain constant region) (human, UniProt P01861 1-274 = IgG part); assay: Western blot: E. coli lysate with the GST-tagged peptide, SDS-PAGE, PVDF membrane, POD-labelled antibody diluted 1000-fold, ECL
T3 construct: E. coli lysate on Western blot; not shown: GST tag (glutathione S-transferase) linked to the N terminal, expressed from vector pGEX-6P-1
T3 sequence (P01861 1-274): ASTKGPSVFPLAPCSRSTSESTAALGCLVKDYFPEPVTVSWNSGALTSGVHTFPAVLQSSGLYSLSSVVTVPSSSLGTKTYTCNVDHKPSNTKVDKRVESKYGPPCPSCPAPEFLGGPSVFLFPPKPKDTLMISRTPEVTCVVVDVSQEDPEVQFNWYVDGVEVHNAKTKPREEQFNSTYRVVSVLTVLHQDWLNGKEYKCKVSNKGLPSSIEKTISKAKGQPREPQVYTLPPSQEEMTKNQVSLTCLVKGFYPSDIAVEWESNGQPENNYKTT
Procedure: (§2) Based on the designed amino acid sequences, base sequences suitable for expressing protein in E. coli were designed according to the protocol of GenScript Corporation, thereby preparing vector pGEX-6P-1 (GE Healthcare Bio-Sciences Corp.) to which the respective base sequences are inserted. The prepared expression plasmid was introduced to E. coli BL 21 strain, thereby obtaining a transformant. The transformant was cultured by an ordinary method and a protein expression was induced by IPTG. After the cells were collected by centrifugation, the cells were dissolved with an ordinary lysis solution, and subjected to ultrasonication. 6 μL of an SDS sample buffer solution was added to 6 μL of the obtained lysate. The respective prepared samples were subjected to a heat treatment at 95° C. for 5 minutes. 10 μL of the E. coli disrupted sample was added to each well of 5 to 20% electrophoresis gel (Atto Corportation) to which an SDS electrophoresis buffer solution was added. Similarly, a molecular weight standard (Bio-Rad Laboratories, Inc.) was added to each well and electrophoresed. After completing the electrophoresis, the electrophoresis gel was transcribed to a PVDF membrane (Millipore Corporation) with a transfer buffer solution. The PVDF membrane was immersed in a membrane blocking buffer solution, and then shaking was carried out at room temperature for 30 minutes. Amino groups of MaI4-08, MaI4-09, and MaI4-05-produced antibodies were subjected to a POD labeling treatment with a POD labeling kit (Dojindo Molecular Technologies, Inc.). The obtained labeled antibodies each were diluted 1000-fold by PBST. After the PVDF membrane was cleaned with PBST, the antibody solutions prepared each were added to the PVDF membrane, and then the reaction was performed at room temperature for 1 hour. After the PVDF membrane was cleaned by PBST, a signal was detected with ECL Prime Western Blotting Detection Reagents (GE Healthcare) with Image Quant Las4000.

[9] = target: T4, GST-tagged peptide H3 (positions 1 to 220 of the human IgG4 heavy chain constant region) (human, UniProt P01861 1-220 = IgG part); assay: as above
T4 construct: E. coli lysate on Western blot; not shown: GST tag (glutathione S-transferase) linked to the N terminal, expressed from vector pGEX-6P-1
T4 sequence (P01861 1-220): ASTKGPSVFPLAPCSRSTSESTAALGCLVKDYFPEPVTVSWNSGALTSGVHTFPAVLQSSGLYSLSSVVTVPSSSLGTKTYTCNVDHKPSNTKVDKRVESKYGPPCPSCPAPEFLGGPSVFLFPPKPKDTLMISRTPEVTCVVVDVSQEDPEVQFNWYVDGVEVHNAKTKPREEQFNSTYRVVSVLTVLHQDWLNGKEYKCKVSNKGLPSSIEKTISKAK
Procedure: as §2

[10] = target: T5, GST-tagged peptide H4 (positions 1 to 165 of the human IgG4 heavy chain constant region) (human, UniProt P01861 1-165 = IgG part); assay: as above
T5 construct: E. coli lysate on Western blot; not shown: GST tag (glutathione S-transferase) linked to the N terminal, expressed from vector pGEX-6P-1
T5 sequence (P01861 1-165): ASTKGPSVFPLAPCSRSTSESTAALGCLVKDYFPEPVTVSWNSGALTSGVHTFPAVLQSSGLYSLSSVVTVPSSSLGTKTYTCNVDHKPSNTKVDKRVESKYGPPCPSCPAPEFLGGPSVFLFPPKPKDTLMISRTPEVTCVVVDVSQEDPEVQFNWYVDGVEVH
Procedure: as §2

[11] = target: T6, GST-tagged peptide H5 (positions 1 to 110 of the human IgG4 heavy chain constant region) (human, UniProt P01861 1-110 = IgG part); assay: as above
T6 construct: E. coli lysate on Western blot; not shown: GST tag (glutathione S-transferase) linked to the N terminal, expressed from vector pGEX-6P-1
T6 sequence (P01861 1-110): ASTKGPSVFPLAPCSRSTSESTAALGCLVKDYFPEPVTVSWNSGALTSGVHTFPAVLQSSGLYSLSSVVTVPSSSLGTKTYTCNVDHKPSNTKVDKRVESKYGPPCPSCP
Procedure: as §2

[12] = target: T7, GST-tagged peptide H6 (positions 1 to 55 of the human IgG4 heavy chain constant region) (human, UniProt P01859 1-55 = IgG part); assay: as above
T7 construct: E. coli lysate on Western blot; not shown: GST tag (glutathione S-transferase) linked to the N terminal, expressed from vector pGEX-6P-1
T7 sequence (P01859 1-55): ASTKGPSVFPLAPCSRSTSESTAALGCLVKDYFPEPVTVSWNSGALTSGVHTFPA
Procedure: as §2

[13] = target: T8, GST-tagged peptide H11 (positions 275 to 327 of the human IgG4 heavy chain constant region) (human, UniProt P01861 275-325 = IgG part); assay: as above
T8 construct: E. coli lysate on Western blot; not shown: GST tag (glutathione S-transferase) linked to the N terminal, expressed from vector pGEX-6P-1
T8 sequence (P01861 other isoform, or with tags, fused parts or gaps): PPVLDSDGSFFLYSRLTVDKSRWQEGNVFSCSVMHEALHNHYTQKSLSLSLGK
Procedure: as §2

[14] = target: T9, GST-tagged peptide H12 (positions 99 to 220 of the human IgG4 heavy chain constant region) (human, UniProt P01861 99-220 = IgG part); assay: as above
T9 construct: E. coli lysate on Western blot; not shown: GST tag (glutathione S-transferase) linked to the N terminal, expressed from vector pGEX-6P-1
T9 sequence (P01861 99-220): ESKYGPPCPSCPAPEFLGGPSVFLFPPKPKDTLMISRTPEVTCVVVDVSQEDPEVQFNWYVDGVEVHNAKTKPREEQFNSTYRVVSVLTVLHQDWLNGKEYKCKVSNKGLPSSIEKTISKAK
Procedure: as §2

Sequence of Myeloma human IgA1 (Abcam) (P01876 other isoform, or with tags, fused parts or gaps): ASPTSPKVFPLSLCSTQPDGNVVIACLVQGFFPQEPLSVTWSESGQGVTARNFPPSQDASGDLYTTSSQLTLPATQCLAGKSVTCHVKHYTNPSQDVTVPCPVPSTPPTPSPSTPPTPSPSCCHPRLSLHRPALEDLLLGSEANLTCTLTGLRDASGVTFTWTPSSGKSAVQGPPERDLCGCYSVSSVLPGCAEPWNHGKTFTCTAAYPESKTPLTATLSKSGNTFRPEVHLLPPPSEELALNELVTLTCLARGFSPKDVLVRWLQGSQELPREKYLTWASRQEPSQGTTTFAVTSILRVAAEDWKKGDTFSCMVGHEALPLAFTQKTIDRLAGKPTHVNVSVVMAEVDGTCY

B1: MaI4-09-produced antibody (antibody, IgG1, V domains shown)
VH: EVQLQQSGPELVKPGASVKMSCKASGYTFTSSVMHWMKQKPGQGLEWIGYINPYNDGTRYNEKFQGKATLTSDKSSNTAYMELSSLTSEDSAVYYCTRSFYYGNSHVLFAYWGQGTLVTVSA
VL: DIKMTQSPSSIYPSLGERVTITCKASQDINSYLSWFQQKPGKSPKTLIYRANRLVDGVPSRFSGSGSGQDYSLTISSLEYEDMGIYHCLQYDELPYTFGGGTTLEIK
notes: Purified on protein G from hybridoma culture supernatant; POD-labelled for the Western blots
[1]
  absorbance at 450 nm: 0.058
[2]
  absorbance at 450 nm: 0.05
[3]
  absorbance at 450 nm: 0.051
[4]
  absorbance at 450 nm: 0.05
[5]
  absorbance at 450 nm: 0.055
[6]
  absorbance at 450 nm: 0.064
[7]
  absorbance at 450 nm: 0.052
[8]
  binding result: no binding
[9]
  binding result: no binding
[10]
  binding result: no binding
[11]
  binding result: no binding
[12]
  binding result: no binding
[13]
  binding result: no binding
[14]
  binding result: no binding
